# Experimental data as given in patent publication US20250250357A1 (NANJING ZAIMING PHARMACEUTICAL, published 2025).
# T1: human MSLN-R1-his protein (human, UniProt Q13421 296-390)
# T1 construct: Region 1 of human MSLN, His-tagged; also called human MSLN-R1 protein; hMSLN-R1-his; not shown: His tag
# T1 chain: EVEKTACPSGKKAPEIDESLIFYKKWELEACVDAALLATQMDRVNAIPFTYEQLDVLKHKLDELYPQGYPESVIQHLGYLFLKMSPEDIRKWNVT
# B1: S009-F2.21.4 (antibody, human IgG1, kappa, V domains shown)
# VH: EVQLQQSGPELVKPGASVKIPCKASGYTFTDYNMDWVKQSHGKSLEWIGDINPNNGGSIYNQRFKGKATLTVDKSSSTAYMELRSLTSEDSAVYYCARRAYYSTGYFDVWGTGTTVTVSS
# VL: QIVLTQSPALMSASPGEKVTITCSASSSISYMHWFQQKPGTSPKLWIYSTSTLASGVPARFSGSGSGTSYSLTISRMEAEDTATYYCQQRSSYPPTFGGGTKLEIKR
# notes: Human-murine chimeric antibody, human IgG1/kappa constant regions
# B2: S009-F2.16.10 (antibody, human IgG1, kappa, V domains shown)
# VH: QVQLQQPGAELIKPGASVKLSCKASGYTFTSYWMHWVKQRPGQGLEWIGIIHPNIGSTNYNERFKSKATLTVDKSSSTAYMQLSSLTSEDSAVYYCARRSSNYGDWYFDVWGTGTTVTVSS
# VL: DIVMTQSHRFMSTSVGDRVSITCKASQDVGTSVAWYQQKPGQSPKLLIYWASTQHTGVPDRFTGSGSGTDFTLTINNVQSEDLLDYFCQQYSSYPLTFGAGTKLELKR
# notes: as for B1
# B3: S009-F2.17.3 (antibody, human IgG1, kappa, V domains shown)
# VH: QVQLQQPGTELVTPGASVKLSCKASGYSFTSYWMHWVKQRPGQGLEWIGNINPSNGDTFYNEKFKNKATLTVDKSSSTAYMQLSSLTSEDSAVYYCARGWLRDYWGQGTTLTVSS
# VL: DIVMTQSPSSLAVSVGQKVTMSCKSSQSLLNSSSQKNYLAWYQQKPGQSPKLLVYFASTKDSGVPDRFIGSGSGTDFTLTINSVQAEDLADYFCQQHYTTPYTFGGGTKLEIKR
# notes: as for B1
# B4: S009-F2.38.12 (antibody, human IgG1, kappa, V domains shown)
# VH: QVQLQQPGTELVKPGASVKLSCKASGYTFTSYWMHWVKQRPGQGLEWIGNINPSNGGTNYNEKIKNKATLTVDKSSSTAYMQLSSLTSEDSAVYYCARWNYYGNYPFDYWGQGTTLTVSS
# VL: DIVMTQSQKFMSTTVGDRVSITCKASQNVGTAVAWYQQKPGQSPKLLIYSASNRYTGVPDRFTGSGSGTDFTLTISNMQSEDLADYFCQQYSSYPLTFGAGTKLELKR
# notes: as for B1
# B5: S009-F2.13.3 (antibody, human IgG1, kappa, V domains shown)
# VH: QVQLQQSGAELMKPGASVKLSCKATGYTFTGYWIEWVKQRPGHGLEWIGEILPGSGSTNYNEKFKGKATFTADTSSNTAYMQLSSLTTEDSAIYYCARAGAWFAYWGQGTLVTVSA
# VL: QIVLTQSPAIMSASLGERVTMTCTASSSVSSSYLHWYQQKPGSSPKLWTYSTSNLASGVPARFSGSGSGTSYSLTISSMEAEDAATYYCHQYHRSPWTFGGGTKLEIKR
# notes: as for B1
# B6: S009-F2-56.12 (antibody, human IgG1, kappa, V domains shown)
# VH: DVQLQESGPGMVKPSQSLSLTCTVTGYSITSGYDWHWIRHFPGNKLEWMGYISYSGSTNYNPSLKSRISITHDTSKNHFFLKLKSVTTEDTATYYCARGTGPDYWGQGTTLTVSS
# VL: DIVMTQSQKFMSTSVGDRVSITCKASQNVRTAVAWYQQKPGQSPKALIHLPSNRHTGVPDRFTGSGSGTDFTLTISNVQSEDLADYFCLQHWNYPLTFGGGTKLEIKR
# notes: as for B1
# B7: S009-F2.21.4 (antibody, human IgG1, kappa, V domains shown)
# VH: B1 VH
# VL: B1 VL
# notes: human-murine chimeric antibody, human IgG1/kappa constant regions
# B8: S009-F1.25.10 (antibody, human IgG1, kappa, V domains shown)
# VH: EVQLQQSGPELVKPGASLKISCKASGYSFTDYTMNWVKQSHGKNLEWIGLFNPYNGGISYNQKFKGKATLTVDKSSNTAYMELLSLTSDDSAVYFCARDGRGGFYAMDYWGQGTSVTVSS
# VL: DIQMTQTTSSLSASLGDRVTISCRASQDISIYLNWYQQKPDGPVKLLIYYTSRLHSGVPSRFSGSGSGTDFSLTISNLEQEDIATYFCQQGYTLPPWTFGGGTKLEIKR
# notes: as for B7
# B9: S009-F1.7.14 (antibody, human IgG1, kappa)
# heavy: not shown
# light: QIVLTQSPAIMSASPGEKVTISCSASSSVSYMYWYQQKPGSSPKPWISRTSNLASGVPARFSGSGSGTSYSLTISSMEAEDAATYYCQQYHSYPPTLGAGTKLELKRTVAAPSVFIFPPSDEQLKSGTASVVCLLNNFYPREAKVQWKVDNALQSGNSQESVTEQDSKDSTYSLSSTLTLSKADYEKHKVYACEVTHQGLSSPVTKSFNRGEC
# notes: as for B7
# B10: S009-F2.38.12 (antibody, human IgG1, kappa, V domains shown)
# VH: B4 VH
# VL: B4 VL
# notes: as for B7
# B11: S009-F1.62.9 (antibody, human IgG1, kappa, V domains shown)
# VH: EVQLQQSGADLVKPGASVKLSCTVFGLNFKDTFMHWVRQRPEQGLEWIGRIDPANDNSIYGPKFQDKATITADTSSNTAYLHLSSLTSEDTAVYYCLYFDNWGHGTTLTVSS
# VL: DIVMTQAASSEPVTPGESVSISCRSDKSLLHSNGHNYLYWFLQRPGQSPHLLIYRMSNLASGVPDRFSGSGSGTAFTLRISRVEAEDVGVYYCMQHLEYPLTFGAGTKLELKR
# notes: as for B7
# B12: S009-F1.59.1 (antibody, human IgG1, kappa, V domains shown)
# VH: EVKLEGSGGGLVQPGGSMMLSCVATGFTFSSYWMNWVRQSPDRGLEWVAEIRLKSNGFAAFYAESVKGRFTISRDDSKSSVYLQMNNLRTEDTGIYYCTYFVHWGQGILVTVSE
# VL: DIVLTQSPTSLAVSLGQRATISCRTSESVEYFGTILIQWYQQKPGQPPKLLIFGASNVESGVPARFSGSGSGTDFSLNIHPVEEEDIAMYFCQQNRKVPYTFGGGTTLELKR
# notes: as for B7
# Target: T2, human MSLN-FL-his protein (human, UniProt Q13421 296-580)
# T2 construct: also called human MSLN full-length protein; hMSLN-FL-his; not shown: His tag
# Assay: ELISA, coated MSLN full-length;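 further: binding of chimeric antibodies to plate-bound antigen, read by TMB colour after acid stop, antibody incubated 2 h at 37 °C, negative control antibody run alongside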
# Procedure: (§1) The plate was sealed with a plastic film and incubated at 4° C. overnight. The next day, the plate was washed twice with PBST, and a blocking buffer [PBS+2% (w/w) BSA] was added for blocking at room temperature for 2 h. The blocking buffer was discarded, and a chimeric antibody or negative control antibody serially diluted from 100 nM was added at 50 μL/well. After incubation at 37° C. for 2 h, the plate was washed 3 times with PBST. […] After incubation at 37° C. for 2 h, the plate was washed 5 times with PBST. A TMB substrate was added at 50 μL/well for incubation at room temperature for 5-10 min, and then a stop solution (1.0 N HCl) was added at 50 μL/well.
OD450 at 0.0001 nM [OD450],OD450 at 0.001 nM [OD450],OD450 at 0.01 nM [OD450],OD450 at 0.1 nM [OD450],OD450 at 1 nM [OD450],OD450 at 10 nM [OD450],OD450 at 100 nM [OD450],OD450 at none (no antibody) [OD450],Binder
0.05,0.09,0.41,1.93,2.46,2.56,2.95,0.06,B1
0.05,0.09,0.41,1.71,2.22,2.4,2.92,0.06,B2
0.05,0.06,0.13,0.64,1.93,2.48,2.81,0.06,B3
0.06,0.09,0.46,1.85,2.56,2.43,2.57,0.06,B4
0.06,0.08,0.26,1.3,2.08,2.37,2.77,0.06,B5
0.06,0.07,0.16,0.37,0.41,0.37,0.4,0.07,B6

# Target: T1, human MSLN-R1-his protein
# Assay: ELISA, coated MSLN-R1;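 further: serially diluted chimeric antibodies bound to the coated, BSA-blocked plate for 2 h at 37 °C, with TMB colour read after acid stop and a negative control antibody alongside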
# Procedure: as §1
OD450 at 0.0001 nM [OD450],OD450 at 0.001 nM [OD450],OD450 at 0.01 nM [OD450],OD450 at 0.1 nM [OD450],OD450 at 1 nM [OD450],OD450 at 10 nM [OD450],OD450 at 100 nM [OD450],OD450 at none (no antibody) [OD450],Binder
0.05,0.05,0.05,0.05,0.05,0.05,0.06,0.06,B1
0.05,0.06,0.09,0.44,0.94,1.62,2.03,0.06,B2
0.05,0.05,0.04,0.05,0.04,0.06,0.07,0.06,B3
0.05,0.05,0.05,0.05,0.05,0.05,0.06,0.06,B5

# Target: T3, human MSLN-FL-his protein (human, UniProt Q13421 296-580)
# T3 construct: made in HEK293E cells, purified on nickel column; also called hMSLN-FL-his; human MSLN full-length protein; not shown: His tag
# Assay: SPR (Biacore), antibody captured on Protein A chip;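 further: measured at 25 °C, analyte injected 240 s in five twofold dilutions from 200 nM, dissociation up to 600 s, double-referenced, fitted with Langmuir 1:1 model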
# T3 sequence (Q13421 other isoform, or with tags, fused parts or gaps): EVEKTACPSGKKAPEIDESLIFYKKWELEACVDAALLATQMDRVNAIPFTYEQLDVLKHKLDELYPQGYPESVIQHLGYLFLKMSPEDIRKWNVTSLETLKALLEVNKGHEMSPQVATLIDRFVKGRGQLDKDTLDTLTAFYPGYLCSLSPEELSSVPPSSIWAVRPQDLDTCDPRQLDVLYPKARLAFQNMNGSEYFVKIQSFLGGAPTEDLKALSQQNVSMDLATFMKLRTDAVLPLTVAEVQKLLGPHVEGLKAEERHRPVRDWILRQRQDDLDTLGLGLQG
Kd [nM],koff [s⁻¹],kon [M⁻¹ s⁻¹],Binder
29.1,0.0227,780000,B7
186,0.00067,3600,B8
12.8,0.00709,553000,B9
30.8,0.0109,354000,B10
745,0.000348,467,B11
563,0.000922,1640,B12
